Where “and” joins values, the source holds several entries; their conditions need not be identical. Equal values may be shown once. Read-outs that look alike come from different tables or passages of the source.
How the values were obtained:
[1] = target: FLAG::NOS-3 (S644E, T648E), phospho-mimetic (C. elegans); assay: pull-down
[2] = target: FLAG::NOS-3 (S644E, T648E), phospho-mimetic (C. elegans); assay: pull-down; remark: listed apart in the source

B1: FBF-1 (natural protein)
chain: MDQSKMRYTNQFRKTPQKPTSTEVGNHHTPAHSPMAQHETSMWNFNSLNPYFSMLNMNDGMNYARHQQNHIVTSRPPTPLTDLMSLRSFQSFPNVFMPVSRSRTSSFIQSDTDSSRLEPDDFSQNVRYCSTEIDRNNSSSKNDHLKYSRPALSRNSRSFTRSNNVLPTWSLDSNGEMRSRLSLSEVLDSGDLMKFAVDKTGCQFLEKAVKGSLTSYQKFQLFEQVIGRKDDFLKLSTNIFGNYFVQEIIGMSLTTYDDDNIKRQEKLKNFISSQMTDMCLDKFACRVIQSSLQNMDLSLACKLVQALPRDARLIAICVDQNANHVIQKVVAVIPLKNWEFIVDFVATPEHLRQICFDKYGCRVVQTIIEKLTADSINVDLTSAAQHLRERALQRLMTSVTNRCQELATNEYANYIIQHIVSNDDLAVYRECIIEKCLMRNLLSLSQEKFASHVVEKAFLHAPMELLAEMMDEIFDGYMPHPGTGKDALDIMMFHQFGNYVVQCMLTICCDAVSGRRQTKEGSYDHANSFQVWLKKLHSRVTKERHRLSRFSSGKKMIETLAHLRSTHPIYGLQSSGHESFKTDCFSTASEHDGLELEKNGIEEGNLRLMRTFSP
modifications: S^35 labeled methionine
fold reduction of FBF-1 binding compared to wild-type NOS-3 [1]: 14 fold | fold reduction of FBF-1 binding compared to wild-type NOS-3 [2]: 17 fold and > 20 fold

— PMC3098718
